Data as given in patent US20240400677A1 (ELECTRA THERAPEUTICS, published 2024).

T1: cynomolgus monkey SIRPγ on CHO cells (cynomolgus monkey, UniProt Q9P1W8 29-386 (human entry))
T1 construct: also called Cyno SIRPγ CHO
T1 chain: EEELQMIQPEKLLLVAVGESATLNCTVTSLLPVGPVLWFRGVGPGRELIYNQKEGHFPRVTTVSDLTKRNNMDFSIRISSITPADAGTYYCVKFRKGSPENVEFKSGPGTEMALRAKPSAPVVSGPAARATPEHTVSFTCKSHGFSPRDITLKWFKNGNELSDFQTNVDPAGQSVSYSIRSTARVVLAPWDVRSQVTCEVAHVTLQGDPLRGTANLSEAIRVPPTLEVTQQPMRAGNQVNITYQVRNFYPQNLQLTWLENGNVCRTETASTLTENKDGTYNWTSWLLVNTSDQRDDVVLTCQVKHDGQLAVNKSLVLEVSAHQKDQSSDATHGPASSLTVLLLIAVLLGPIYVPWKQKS

T2: cynomolgus monkey SIRPα on CHO cells (cynomolgus monkey, UniProt A0A2K5VYQ9 31-507)
T2 construct: whole, on cells; also called Cyno SIRPα CHO
T2 sequence: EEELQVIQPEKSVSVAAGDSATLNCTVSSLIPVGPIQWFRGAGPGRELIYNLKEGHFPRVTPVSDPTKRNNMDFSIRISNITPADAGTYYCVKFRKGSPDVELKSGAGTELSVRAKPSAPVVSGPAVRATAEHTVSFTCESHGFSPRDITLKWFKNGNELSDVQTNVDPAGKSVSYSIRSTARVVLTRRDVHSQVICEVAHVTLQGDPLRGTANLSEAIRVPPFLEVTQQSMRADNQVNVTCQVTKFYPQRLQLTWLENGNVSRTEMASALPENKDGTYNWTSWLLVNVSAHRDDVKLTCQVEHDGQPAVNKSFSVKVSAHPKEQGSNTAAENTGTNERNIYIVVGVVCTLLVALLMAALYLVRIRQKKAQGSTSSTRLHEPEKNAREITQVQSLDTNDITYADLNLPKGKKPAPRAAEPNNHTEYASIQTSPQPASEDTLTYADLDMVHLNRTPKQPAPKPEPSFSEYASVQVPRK

T3: Cynomolgus Monkey SIRPγ (plate-coated extracellular domain)
T3 construct: also called Cyno SIRPγ
T3 extracellular domain: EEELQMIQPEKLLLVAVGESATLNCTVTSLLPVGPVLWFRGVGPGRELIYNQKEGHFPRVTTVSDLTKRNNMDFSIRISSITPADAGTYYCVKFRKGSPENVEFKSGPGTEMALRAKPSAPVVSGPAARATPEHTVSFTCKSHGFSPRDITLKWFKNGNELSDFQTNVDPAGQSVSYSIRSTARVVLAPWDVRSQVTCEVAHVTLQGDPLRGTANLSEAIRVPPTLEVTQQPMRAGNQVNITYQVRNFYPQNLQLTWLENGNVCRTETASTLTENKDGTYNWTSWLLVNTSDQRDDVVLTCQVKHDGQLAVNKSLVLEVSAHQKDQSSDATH

T4: cynomolgus monkey SIRPγ-His monomer protein (cynomolgus monkey, UniProt Q9P1W8 29-359 (human entry), limits assumed)
T4 construct: also called Cyno SIRPγ; Cyno SIRPγ-His
T4 chain: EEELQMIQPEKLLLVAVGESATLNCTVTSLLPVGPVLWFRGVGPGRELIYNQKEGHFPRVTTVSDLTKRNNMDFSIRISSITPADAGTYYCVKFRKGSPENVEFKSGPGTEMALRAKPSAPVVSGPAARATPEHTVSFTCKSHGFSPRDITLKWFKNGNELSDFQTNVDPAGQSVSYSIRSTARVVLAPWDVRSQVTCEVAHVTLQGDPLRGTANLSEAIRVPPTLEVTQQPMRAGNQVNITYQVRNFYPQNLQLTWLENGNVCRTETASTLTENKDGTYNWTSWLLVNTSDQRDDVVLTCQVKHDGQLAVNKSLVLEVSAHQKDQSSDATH

B1: Antibody 60 (antibody, V domains shown)
VH: EVQLLESGGGLVQPGGSLRLSCAASGFTLGSYWMHWVRQAPGKGLEWVSLISWDGGSTYYADSVKGRFTISRDNSKNTLYLQMNSLRAEDTAVYYCAKGPWVGYSGYDLNYYYYGMDVWGQGTTVTVSS
VL: DIQMTQSPSSLSASVGDRVTITCRASQDIRRALAWYQQKPGKAPKLLIYAASSLQSGVPSRFSGSGSGTDFTLTISSLQPEDFATYYCLQHNSYPPTFGQGTKLEIK
B2: Antibody 83 (antibody, V domains shown)
VH: QVQLVQSGAEVKKPGASVKVSCKASGYSFSDYYMHWVRQAPGQGLEWMGWMSPNSGNTGYAQKFQGRVTMTRDTSTSTVYMELSSLRSEDTAVYYCARQREEYGHYYYGMDVWGQGTMVTVSS
VL: EIVMTQSPATLSVSPGERATLSCRASQSLGSTYLAWYQQKPGQAPRLLIYGASTRATGIPARFSGSGSGTEFTLTISSLQSEDFAVYYCQQYYSSPPTFGQGTKVEIK
B3: Antibody 97 (antibody, V domains shown)
VH: QVQLVQSGAEVKKPGASVKVSCKASGHTFNNNYIHWVRQAPGQGLEWMGIINPSGGSTSYAQKFQGRVTMTRDTSTSTVYMELSSLRSEDTAVYYCARQIQDYGYYYYGMDVWGQGTTVTVSS
VL: EIVMTQSPATLSVSPGERATLSCRASQSVSKYLAWYQQKPGQAPRLLIYAISARAAGIPARFSGSGSGTEFTLTISSLQSEDFAVYYCQQYYSSPPTFGQGTKVEIK
B4: Antibody 94 (antibody, V domains shown)
VH: QVQLVQSGAEVKKPGASVKVSCKASGYTFTSYGISWVRQAPGQGLEWMGWISAYNGNTNYAQKFQGRVTMTRDTSTSTVYMELSSLRSEDTAVYYCARGTYYDYIWGSYRYSWFDYWGQGTLVTVSS
VL: not shown
B5: Antibody 80 (antibody, V domains shown)
VH: QVQLVQSGAEVKKPGASVKVSCKASGYTFTRYDINWVRQAPGQGLEWMGWMNPNSGNTGYAQKLQGRVTMTRDTSTSTVYMELSSLRSEDTAVYYCARERVGYCSSTSCLHPLDYWGQGTLVTVSS
VL: DIQMTQSPSSLSASVGDRVTITCRASQGIRNDLGWYQQKPGKAPKLLIYSASNLQSGVPSRFSGSGSGTDFTLTISSLQPEDFATYYCQQSYDVPLTFGGGTKVEIK
B6: Antibody 96 (antibody, V domains shown)
VH: QVQLVQSGAEVKKPGASVKVSCKASGYTFTRYDINWVRQAPGQGLEWMGWMNPNSGNTGYAQKLQGRVTMTRDTSTSTVYMELSSLRSEDTAVYYCARERVGYCSSTSCLHPLDYWGQGTLVTVSS
VL: DIQMTQSPSSLSASVGDRVTITCRASQGIRNDLGWYQQKPGKAPKLLIYSASNLQSGVPSRFSGSGSGTDFTLTISSLQPEDFATYYCQQSYDVPLTFGGGTKVEIK
B7: Antibody 95 (antibody, V domains shown)
VH: QVQLVQSGAEVKKPGASVKVSCKASGYTFTSYYMHWVRQAPGQGLEWMGWMNPNSGNTGYAQKFQGRVTMTRDTSTSTVYMELSSLRSEDTAVYYCARDQMYSSYGMDVWGQGTTVTVSS
VL: DIQMTQSPSSLSASVGDRVTITCRASESITNWLAWYQQKPGKAPKLLIYKASSLESGVPSRFSGSGSGTDFTLTISSLQPEDFATYYCQQSYGTPYTFGQGTKVEIK
B8: Antibody 90 (antibody, V domains shown)
VH: QVQLVQSGAEVKKPGASVKVSCKASGYTFTSYYMHWVRQAPGQGLEWMGWMNPNSDNTGYAQKFQGRVTMTRDTSTSTVYMELSSLRSEDTAVYYCARVGVGYGYYYYGMDVWGQGTTVTVSS
VL: DIQMTQSPSSLSASVGDRVTITCRAGQSIGDYLNWYQQKPGKAPKLLIYAASSLQSGVPSRFSGSGSGTDFTLTISSLQPEDFATYYCQQSYSTPWTFGQGTKVEIK
B9: Antibody 69 (antibody, V domains shown)
VH: QVQLVQSGAEVKKPGASVKVSCKASGYTFTSYYMHWVRQAPGQGLEWMGWMNPNSDNTGYAQKFQGRVTMTRDTSTSTVYMELSSLRSEDTAVYYCARVGVGYGYYYYGMDVWGQGTTVTVSS
VL: DIQMTQSPSSLSASVGDRVTITCRAGQSIGDYLNWYQQKPGKAPKLLIYAASSLQSGVPSRFSGSGSGTDFTLTISSLQPEDFATYYCQQSYSTPWTFGQGTKVEIK

Tests used:
[1] = biological target: T1, cynomolgus monkey SIRPγ on CHO cells; assay: flow cytometry, CHO transfectants, anti-human IgG
Outline: (§1)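 Stably transfected CHO cells were incubated with titrated antibodies, and binding was detected with a fluorescent anti-human IgG secondary. Median fluorescence intensity was recorded at each concentration. For the myc-scFv format, crude periplasmic extract was incubated with the SIRP-expressing lines and parental CHO-K1, and fold change <2.0 was scored as non-binder.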

[2] = biological target: T2, cynomolgus monkey SIRPα on CHO cells; assay: flow cytometry, CHO transfectants, anti-human IgG
Outline: as §1

[3] = biological target: T5, human SIRPβ1 on CHO cells (co-transfected with DAP12) (human, UniProt O00241 30-398); assay: flow cytometry, CHO transfectants, anti-human IgG
T5 construct: whole, on cells; co-transfected with DAP12; also called Human SIRPβ1 CHO
Outline: as §1

[4] = biological target: T6, human SIRPγ on stably transfected CHO cells (human, UniProt Q9P1W8 29-387); assay: flow cytometry, CHO transfectants, anti-human IgG
T6 construct: also called Human SIRPγ CHO
Outline: as §1

[5] = biological target: T3, Cynomolgus Monkey SIRPγ (plate-coated …); assay: ELISA, coated SIRP ECD (2 µg/mL), anti-human IgG, luminescence
Outline: (§2)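 Plate-coated SIRP extracellular domain (2 μg/mL), blocked, then exposed to purified antibodies in titration, after transient expression in Expi293F cells for 5 days and Protein A purification. Bound antibody is detected with anti-human IgG and a chemiluminescent substrate, and reported as relative luminescence units.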

[6] = biological target: T7, extracellular binding domain of human SIRPγ (plate-coated) (human, UniProt Q9P1W8 29-360); assay: as above
T7 construct: also called hSIRPγ
Outline: as §2

[7] = biological target: T8, human SIRPγ-His monomer protein (human, UniProt Q9P1W8 29-360); assay: BLI Octet, antibody on AHC, global 1:2 model
T8 construct: also called hSIRPγ
Protocol: (§3) Antibodies were coated onto anti-human Fc capture (AHC) biosensors. SIRP-His monomer protein or bivalent SIRP protein with mouse Fc at four concentrations (200 nM, 100 nM, 50 nM, 25 nM) were exposed to the biosensor to measure on-rate kinetics of SIRP antibodies binding to SIRP protein. The biosensors were then exposed to wash buffer to measure off-rate kinetics. The resulting kinetic data were analyzed and fitted using a global 1:2 binding model.

[8] = biological target: T4, cynomolgus monkey SIRPγ-His monomer …; assay: BLI Octet, antibody on AHC, global 1:2 model
Protocol: as §3

[9] = biological target: T9, bivalent human SIRPγ protein with mouse Fc (human, UniProt Q9P1W8 29-360); assay: BLI Octet, antibody on AHC, global 1:2 model
T9 construct: also called Human SIRPγ-mFc
Protocol: as §3

[10] = biological target: T7, extracellular binding domain of human …; assay: competition ELISA, coated SIRPγ ECD, antibody 1 h then 10 µg/mL biotinylated CD47-Fc (blocked ligand), streptavidin-HRP
Protocol: To carry out the competition experiment, the extracellular binding domain of SIRPγ was coated onto a high protein-binding plate and blocked. A titration of each SIRPγ antibody was incubated on the plate for 1 hour. […] Following a wash, streptavidin-HRP was added. The plate was washed again and developed using a chemiluminescent substrate. The plate was read on a plate reader to assess luminescence. […] A known blocker antibody was used as a positive control.

T9 sequence (Q9P1W8 29-360 limits assumed): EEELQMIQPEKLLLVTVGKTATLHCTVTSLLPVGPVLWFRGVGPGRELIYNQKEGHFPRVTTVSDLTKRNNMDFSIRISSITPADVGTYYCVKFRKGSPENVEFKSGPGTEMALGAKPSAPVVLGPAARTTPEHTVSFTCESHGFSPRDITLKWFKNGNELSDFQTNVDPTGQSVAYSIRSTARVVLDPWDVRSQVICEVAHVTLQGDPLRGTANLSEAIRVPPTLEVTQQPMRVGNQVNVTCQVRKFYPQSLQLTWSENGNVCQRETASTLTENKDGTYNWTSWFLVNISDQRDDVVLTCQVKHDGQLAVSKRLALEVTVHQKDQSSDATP
T7 sequence (Q9P1W8 29-360 limits assumed): as above
T8 sequence (Q9P1W8 29-360 limits assumed): as above
T6 sequence (Q9P1W8 29-387 limits assumed): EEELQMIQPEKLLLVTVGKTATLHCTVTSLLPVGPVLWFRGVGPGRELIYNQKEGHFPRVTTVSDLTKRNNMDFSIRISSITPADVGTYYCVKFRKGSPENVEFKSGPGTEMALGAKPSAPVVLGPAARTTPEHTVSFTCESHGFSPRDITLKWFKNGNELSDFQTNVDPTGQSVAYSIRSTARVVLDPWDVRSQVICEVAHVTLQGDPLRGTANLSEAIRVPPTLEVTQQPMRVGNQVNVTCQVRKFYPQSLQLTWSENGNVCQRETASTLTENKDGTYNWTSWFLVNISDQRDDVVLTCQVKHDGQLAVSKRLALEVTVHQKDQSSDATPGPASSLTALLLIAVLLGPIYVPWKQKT
T5 sequence (O00241 30-398): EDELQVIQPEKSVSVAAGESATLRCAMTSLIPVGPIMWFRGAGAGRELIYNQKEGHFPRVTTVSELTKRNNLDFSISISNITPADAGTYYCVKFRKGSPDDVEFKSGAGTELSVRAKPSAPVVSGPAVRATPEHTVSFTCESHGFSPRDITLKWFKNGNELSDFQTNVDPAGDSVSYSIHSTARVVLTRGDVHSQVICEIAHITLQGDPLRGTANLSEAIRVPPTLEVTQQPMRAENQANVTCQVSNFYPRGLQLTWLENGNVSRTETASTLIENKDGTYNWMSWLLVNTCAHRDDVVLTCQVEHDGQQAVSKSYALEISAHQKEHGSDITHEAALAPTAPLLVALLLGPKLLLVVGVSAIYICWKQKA

Binder | EC50 (read off the curve) [1] | binding result [2] | binding result [3] | EC50 (read off the curve) [4] | EC50 (read off the curve) [5] | EC50 (read off the curve) [6] | Kd [7] | Kd [8] | Kd [9] | IC50 (read off the curve) [10]
B1 | ~0.7 mg/L | no binding (tested: about 20 µg/mL) | no binding (tested: about 20 µg/mL) | ~0.9 mg/L | ~0.03 mg/L | ~0.02 mg/L | – | – | – | –
B2 | – | no binding (tested: about 30 µg/mL) | no binding (tested: about 30 µg/mL) | – | – | – | 0.174 µM | 0.0117 µM | 0.0532 µM | ~0.2 mg/L
B3 | – | no binding (tested: about 30 µg/mL) | no binding (tested: about 30 µg/mL) | – | – | – | 0.362 µM | 0.0163 µM | 0.0484 µM | ~0.3 mg/L
B4 | – | no binding (tested: about 30 µg/mL) | no binding (tested: about 30 µg/mL) | – | – | – | 0.0301 µM | 0.0426 µM | 0.0802 µM | ~0.2 mg/L
B5 | ~0.7 mg/L | no binding (tested: about 20 µg/mL) | no binding (tested: about 20 µg/mL) | ~0.2 mg/L | ~0.05 mg/L | ~0.02 mg/L | – | – | – | –
B6 | ~0.6 mg/L | no binding (tested: about 30 µg/mL) | no binding (tested: about 30 µg/mL) | ~0.4 mg/L | – | – | 0.0703 µM | 0.211 µM | 0.0215 µM | –
B7 | – | no binding (tested: about 30 µg/mL) | no binding (tested: about 30 µg/mL) | – | – | ~0.07 mg/L | 0.193 µM | 0.0403 µM | 1.28 µM | ~1 mg/L
B8 | – | no binding (tested: about 30 µg/mL) | no binding (tested: about 30 µg/mL) | – | – | – | 0.175 µM | 0.0692 µM | 0.0876 µM | ~0.2 mg/L
B9 | ~0.6 mg/L | no binding (tested: about 20 µg/mL) | no binding (tested: about 20 µg/mL) | ~0.5 mg/L | – | – | – | – | – | –
